Results as given in patent publication US20230330033A1.

Molecular target: CD40 (UniProt P25942)
Assay: cell-based or functional assay

EC50 of CD40 activation, bioluminescent reporter CHO cells: -1.47 log(µM)
Substance: LOB7/6 (antibody)
